# Target: 6HisRsmA (RsmAxcc) (Xanthomonas citri subsp. citri strain 306) (UniProt Q8PLP9)
# Assay: EMSA
# Conditions: 10 mM HEPES pH 7.3, 20 mM KCl, 1 mM MgCl2, 1 mM DTT, 5% glycerol, 0.1 µg/µL yeast tRNA, 20 U RNasin, 25 °C 20 min; 5% native PAGE
# 6HisRsmA (RsmAxcc) (Xanthomonas citri subsp. citri strain 306), sequence (Q8PLP9 whole entry): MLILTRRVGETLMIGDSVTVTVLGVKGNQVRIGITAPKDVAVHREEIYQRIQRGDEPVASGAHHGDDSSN
substance,measurement,value
hrpG 54-189,binding signal (fold less shift than hrpG 1-189),8
